Test results reported in PMC3046773 (Life sciences, 2010).

Molecular target: T1, PGIS–CFP (human, UniProt Q16647 1-500)
T1 sequence (looked up): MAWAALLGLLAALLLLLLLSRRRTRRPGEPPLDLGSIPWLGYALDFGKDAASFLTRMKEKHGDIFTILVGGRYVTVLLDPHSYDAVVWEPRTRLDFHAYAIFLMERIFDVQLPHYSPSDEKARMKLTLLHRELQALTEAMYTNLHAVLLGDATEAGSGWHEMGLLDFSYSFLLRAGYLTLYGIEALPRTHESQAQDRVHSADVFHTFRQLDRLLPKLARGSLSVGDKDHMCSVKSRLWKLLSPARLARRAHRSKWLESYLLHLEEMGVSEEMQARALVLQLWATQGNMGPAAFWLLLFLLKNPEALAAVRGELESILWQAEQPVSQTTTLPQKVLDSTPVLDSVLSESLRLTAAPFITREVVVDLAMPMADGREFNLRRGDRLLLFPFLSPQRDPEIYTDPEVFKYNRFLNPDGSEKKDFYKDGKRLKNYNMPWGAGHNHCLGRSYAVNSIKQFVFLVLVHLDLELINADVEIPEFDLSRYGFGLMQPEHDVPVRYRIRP
Assay: FRET or BRET

B1: COX-2-RFP (enzyme, human, UniProt P35354 18-604, looked up)
chain: ANPCCSHPCQNRGVCMSVGFDQYKCDCTRTGFYGENCSTPEFLTRIKLFLKPTPNTVHYILTHFKGFWNVVNNIPFLRNAIMSYVLTSRSHLIDSPPTYNADYGYKSWEAFSNLSYYTRALPPVPDDCPTPLGVKGKKQLPDSNEIVEKLLLRRKFIPDPQGSNMMFAFFAQHFTHQFFKTDHKRGPAFTNGLGHGVDLNHIYGETLARQRKLRLFKDGKMKYQIIDGEMYPPTVKDTQAEMIYPPQVPEHLRFAVGQEVFGLVPGLMMYATIWLREHNRVCDVLKQEHPEWGDEQLFQTSRLILIGETIKIVIEDYVQHLSGYHFKLKFDPELLFNKQFQYQNRIAAEFNTLYHWHPLLPDTFQIHDQKYNYQQFIYNNSILLEHGITQFVESFTRQIAGRVAGGRNVPPAVQKVSQASIDQSRQMKYQSFNEYRKRFMLKPYESFEELTGEKEMSAELEALYGDIDAVELYPALLVEKPRPDAIFGETMVEVGAPFSLKGLMGNVICSPAYWKPSTFGGEVGFQIINTASIQSLICNNVKGCPFTSFSVPDPELIKTVTINASSSRSGLDDINPTVLLKERSTEL
  FRET intensity relative to COX-1-RFP with PGIS–CFP: 2 fold
